# Assay results from patent publication US20050106141A1 (PROCTER AND GAMBLE, published 2005).
# T1: LexA BD-HRt (mouse, UniProt P0A7C2 1-202; Q61645 490-1182)
# T1 construct: domain: Lex A DNA BD;range 490-1182; also called BD-HRt(mouse); Lex A DNA BD-HRt
# T1 sequence (looked up): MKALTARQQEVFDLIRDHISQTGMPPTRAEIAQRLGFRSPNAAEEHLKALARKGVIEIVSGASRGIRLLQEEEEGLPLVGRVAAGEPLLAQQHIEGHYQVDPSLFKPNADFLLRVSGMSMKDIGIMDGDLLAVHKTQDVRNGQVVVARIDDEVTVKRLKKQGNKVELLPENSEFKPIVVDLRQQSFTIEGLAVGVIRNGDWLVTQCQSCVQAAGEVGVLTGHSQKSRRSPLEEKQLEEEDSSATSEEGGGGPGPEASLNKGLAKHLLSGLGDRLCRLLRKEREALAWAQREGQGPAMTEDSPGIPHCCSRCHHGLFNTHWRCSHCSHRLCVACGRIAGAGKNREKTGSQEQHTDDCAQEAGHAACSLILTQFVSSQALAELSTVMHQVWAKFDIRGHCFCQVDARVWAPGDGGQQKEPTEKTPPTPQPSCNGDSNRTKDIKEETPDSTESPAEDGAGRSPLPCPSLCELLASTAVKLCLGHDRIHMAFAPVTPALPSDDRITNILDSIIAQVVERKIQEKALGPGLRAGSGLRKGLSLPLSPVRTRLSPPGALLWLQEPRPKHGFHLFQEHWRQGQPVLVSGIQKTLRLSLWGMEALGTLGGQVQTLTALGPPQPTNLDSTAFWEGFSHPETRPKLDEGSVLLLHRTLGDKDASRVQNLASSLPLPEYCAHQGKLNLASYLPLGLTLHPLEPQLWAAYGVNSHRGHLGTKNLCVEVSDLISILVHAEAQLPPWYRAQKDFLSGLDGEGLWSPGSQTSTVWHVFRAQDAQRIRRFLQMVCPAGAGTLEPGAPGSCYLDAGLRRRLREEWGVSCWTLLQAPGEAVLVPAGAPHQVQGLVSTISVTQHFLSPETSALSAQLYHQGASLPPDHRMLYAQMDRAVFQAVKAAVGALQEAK
# B1: Homo Sapiens Thyroid Hormone Receptor Alpha (receptor, UniProt P10827-2 1-410, looked up, not shown: large carriers)
# chain: MEQKPSKVECGSDPEENSARSPDGKRKRKNGQCSLKTSMSGYIPSYLDKDEQCVVCGDKATGYHYRCITCEGCKGFFRRTIQKNLHPTYSCKYDSCCVIDKITRNQCQLCRFKKCIAVGMAMDLVLDDSKRVAKRKLIEQNRERRRKEEMIRSLQQRPEPTPEEWDLIHIATEAHRSTNAQGSHWKQRRKFLPDDIGQSPIVSMPDGDKVDLEAFSEFTKIITPAITRVVDFAKKLPMFSELPCEDQIILLKGCCMEIMSLRAAVRYDPESDTLTLSGEMAVKREQLKNGGLGVVSDAIFELGKSLSAFNLDDTEVALLQAVLLMSTDRSGLLCVDKIEKSQEAYLLAFEHYVNHRKHNIPHFWPKLLMKVTDLRMIGACHASRFLHMKVECPTELFPPLFLEVFEDQEV
# notes: Prey clone; extent of the clone unknown; also called AD-IP; BC000261
# B2: Homo Sapiens Insulin-like Growth Factor Binding Domain Protein 6 (other, UniProt P24592 28-240, looked up, not shown: large carriers)
# chain: RCPGCGQGVQAGCPGGCVEEEDGGSPAEGCAEAEGCLRREGQECGVYTPNCAPGLQCHPPKDDEAPLRALLLGRGRCLPARAPAVAEENPKESKPQAGTARPQDVNRRDQQRNPGTSTTPSQPNSAGVQDTEMGPCRRHLDSVLQQLQTEVYRGAQTLYVPNCDHRGFYRKRQCRSSQGQRRGPCWCVDRMGKSLPGSPDGNGSSSCPTGSSG
# notes: Prey clone; extent of the clone unknown; also called AD-IP
# B3: Homo Sapiens Protein Inhibitor of Activated STAT-3 (PIAS3) (other, UniProt Q9Y6X2 1-628, looked up, not shown: large carriers)
# chain: MAELGELKHMVMSFRVSELQVLLGFAGRNKSGRKHELLAKALHLLKSSCAPSVQMKIKELYRRRFPRKTLGPSDLSLLSLPPGTSPVGSPGPLAPIPPTLLAPGTLLGPKREVDMHPPLPQPVHPDVTMKPLPFYEVYGELIRPTTLASTSSQRFEEAHFTFALTPQQVQQILTSREVLPGAKCDYTIQVQLRFCLCETSCPQEDYFPPNLFVKVNGKLCPLPGYLPPTKNGAEPKRPSRPINITPLARLSATVPNTIVVNWSSEFGRNYSLSVYLVRQLTAGTLLQKLRAKGIRNPDHSRALIKEKLTADPDSEVATTSLRVSLMCPLGKMRLTVPCRALTCAHLQSFDAALYLQMNEKKPTWTCPVCDKKAPYESLIIDGLFMEILSSCSDCDEIQFMEDGSWCPMKPKKEASEVCPPPGYGLDGLQYSPVQGGDPSENKKKVEVIDLTIESSSDEEDLPPTKKHCSVTSAAIPALPGSKGVLTSGHQPSSVLRSPAMGTLGGDFLSSLPLHEYPPAFPLGADIQGLDLFSFLQTESQHYGPSVITSLDEQDALGHFFQYRGTPSHFLGPLAPTLGSSHCSATPAPPPGRVSSIVAPGGALREGHGGPLPSGPSLTGCRSDIISLD
# notes: Prey clone; extent of the clone unknown; also called AD-IP; BC030556
# B4: Homo Sapiens Keratin 5 (other, UniProt P13647 1-590, looked up, not shown: large carriers)
# chain: MSRQSSVSFRSGGSRSFSTASAITPSVSRTSFTSVSRSGGGGGGGFGRVSLAGACGVGGYGSRSLYNLGGSKRISISTSGGSFRNRFGAGAGGGYGFGGGAGSGFGFGGGAGGGFGLGGGAGFGGGFGGPGFPVCPPGGIQEVTVNQSLLTPLNLQIDPSIQRVRTEEREQIKTLNNKFASFIDKVRFLEQQNKVLDTKWTLLQEQGTKTVRQNLEPLFEQYINNLRRQLDSIVGERGRLDSELRNMQDLVEDFKNKYEDEINKRTTAENEFVMLKKDVDAAYMNKVELEAKVDALMDEINFMKMFFDAELSQMQTHVSDTSVVLSMDNNRNLDLDSIIAEVKAQYEEIANRSRTEAESWYQTKYEELQQTAGRHGDDLRNTKHEISEMNRMIQRLRAEIDNVKKQCANLQNAIADAEQRGELALKDARNKLAELEEALQKAKQDMARLLREYQELMNTKLALDVEIATYRKLLEGEECRLSGEGVGPVNISVVTSSVSSGYGSGSGYGGGLGGGLGGGLGGGLAGGSSGSYYSSSSGGVGLGGGLSVGGSGFSASSGRGLGVGFGSGGGSSSSVKFVSTTSSSRKSFKS
# notes: Prey clone of the human keratinocyte AD-cDNA library; whole protein named, extent of the clone unknown; also called AD-IP; BC024292
# B5: Homo Sapiens Annexin A1 (Lipocortin 1 or P35) (other, UniProt P04083 1-346, looked up, not shown: large carriers)
# chain: MAMVSEFLKQAWFIENEEQEYVQTVKSSKGGPGSAVSPYPTFNPSSDVAALHKAIMVKGVDEATIIDILTKRNNAQRQQIKAAYLQETGKPLDETLKKALTGHLEEVVLALLKTPAQFDADELRAAMKGLGTDEDTLIEILASRTNKEIRDINRVYREELKRDLAKDITSDTSGDFRNALLSLAKGDRSEDFGVNEDLADSDARALYEAGERRKGTDVNVFNTILTTRSYPQLRRVFQKYTKYSKHDMNKVLDLELKGDIEKCLTAIVKCATSKPAFFAEKLHQAMKGVGTRHKALIRIMVSRSEIDMNDIKAFYQKMYGISLCQAILDETKGDYEKILVALCGGN
# notes: Prey clone; extent of the clone unknown; also called AD-IP; BC001275
# B6: Homo Sapiens Retinoic Acid Receptor Gamma-1 (receptor, UniProt P13631 1-454, looked up, not shown: large carriers)
# chain: MATNKERLFAAGALGPGSGYPGAGFPFAFPGALRGSPPFEMLSPSFRGLGQPDLPKEMASLSVETQSTSSEEMVPSSPSPPPPPRVYKPCFVCNDKSSGYHYGVSSCEGCKGFFRRSIQKNMVYTCHRDKNCIINKVTRNRCQYCRLQKCFEVGMSKEAVRNDRNKKKKEVKEEGSPDSYELSPQLEELITKVSKAHQETFPSLCQLGKYTTNSSADHRVQLDLGLWDKFSELATKCIIKIVEFAKRLPGFTGLSIADQITLLKAACLDILMLRICTRYTPEQDTMTFSDGLTLNRTQMHNAGFGPLTDLVFAFAGQLLPLEMDDTETGLLSAICLICGDRMDLEEPEKVDKLQEPLLEALRLYARRRRPSQPYMFPRMLMKITDLRGISTKGAERAITLKMEIPGPMPPLIREMLENPEMFEDDSSQPGPHPNASSEDEVPGGQGKGGLKSPA
# notes: Prey clone; extent of the clone unknown; also called Human Retinoic Acid Receptor Gamma 1; AD-IP
# B7: Homo Sapiens Nucleoporin 160 Kda (other, UniProt Q12769 1-1436, looked up, not shown: large carriers)
# chain: MLHLSAAPPAPPPEVTATARPCLCSVGRRGDGGKMAAAGALERSFVELSGAERERPRHFREFTVCSIGTANAVAGAVKYSESAGGFYYVESGKLFSVTRNRFIHWKTSGDTLELMEESLDINLLNNAIRLKFQNCSVLPGGVYVSETQNRVIILMLTNQTVHRLLLPHPSRMYRSELVVDSQMQSIFTDIGKVDFTDPCNYQLIPAVPGISPNSTASTAWLSSDGEALFALPCASGGIFVLKLPPYDIPGMVSVVELKQSSVMQRLLTGWMPTAIRGDQSPSDRPLSLAVHCVEHDAFIFALCQDHKLRMWSYKEQMCLMVADMLEYVPVKKDLRLTAGTGHKLRLAYSPTMGLYLGIYMHAPKRGQFCIFQLVSTESNRYSLDHISSLFTSQETLIDFALTSTDIWALWHDAENQTVVKYINFEHNVAGQWNPVFMQPLPEEEIVIRDDQDPREMYLQSLFTPGQFTNEALCKALQIFCRGTERNLDLSWSELKKEVTLAVENELQGSVTEYEFSQEEFRNLQQEFWCKFYACCLQYQEALSHPLALHLNPHTNMVCLLKKGYLSFLIPSSLVDHLYLLPYENLLTEDETTISDDVDIARDVICLIKCLRLIEESVTVDMSVIMEMSCYNLQSPEKAAEQILEDMITIDVENVMEDICSKLQEIRNPIHAIGLLIREMDYETEVEMEKGFNPAQPLNIRMNLTQLYGSNTAGYIVCRGVHKIASTRFLICRDLLILQQLLMRLGDAVIWGTGQLFQAQQDLLHRTAPLLLSYYLIKWGSECLATDVPLDTLESNLQHLSVLELTDSGALMANRFVSSPQTIVELFFQEVARKHIISHLFSQPKAPLSQTGLNWPEMITAITSYLLQLLWPSNPGCLFLECLMGNCQYVQLQDYIQLLHPWCQVNVGSCRFMLGRCYLVTGEGQKALECFCQAASEVGKEEFLDRLIRSEDGEIVSTPRLQYYDKVLRLLDVIGLPELVIQLATSAITEAGDDWKSQATLRTCIFKHHLDLGHNSQAYEALTQIPDSSRQLDCLRQLVVVLCERSQLQDLVEFPYVNLHNEVVGIIESRARAVDLMTHNYYELLYAFHIYRHNYRKAGTVMFEYGMRLGREVRTLRGLEKQGNCYLAALNCLRLIRPEYAWIVQPVSGAVYDRPGASPKRNHDGECTAAPTNRQIEILELEDLEKECSLARIRLTLAQHDPSAVAVAGSSSAEEMVTLLVQAGLFDTAISLCQTFKLPLTPVFEGLAFKCIKLQFGGEAAQAEAWAWLAANQLSSVITTKESSATDEAWRLLSTYLERYKVQNNLYHHCVINKLLSHGVPLPNWLINSYKKVDAAELLRLYLNYDLLEEAVDLVSEYVDAVLGKGHQYFGIEFPLSATAPMVWLPYSSIDQLLQALGENSANSHNIALSQKILDKLEDYQQKVDKATRDLLYRRTL
# notes: Prey clone; extent of the clone unknown; also called Homo Sapiens Nucleoporin 160 kD (NUP160); AD-IP
# B8: Homo Sapiens Inner Membrane Protein, Mitochondrial (Mitofilin) (other, UniProt Q16891 1-758, looked up, not shown: large carriers)
# chain: MLRACQLSGVTAAAQSCLCGKFVLRPLRPCRRYSTSGSSGLTTGKIAGAGLLFVGGGIGGTILYAKWDSHFRESVEKTIPYSDKLFEMVLGPAAYNVPLPKKSIQSGPLKISSVSEVMKESKQPASQLQKQKGDTPASATAPTEAAQIISAAGDTLSVPAPAVQPEESLKTDHPEIGEGKPTPALSEEASSSSIRERPPEEVAARLAQQEKQEQVKIESLAKSLEDALRQTASVTLQAIAAQNAAVQAVNAHSNILKAAMDNSEIAGEKKSAQWRTVEGALKERRKAVDEAADALLKAKEELEKMKSVIENAKKKEVAGAKPHITAAEGKLHNMIVDLDNVVKKVQAAQSEAKVVSQYHELVVQARDDFKRELDSITPEVLPGWKGMSVSDLADKLSTDDLNSLIAHAHRRIDQLNRELAEQKATEKQHITLALEKQKLEEKRAFDSAVAKALEHHRSEIQAEQDRKIEEVRDAMENEMRTQLRRQAAAHTDHLRDVLRVQEQELKSEFEQNLSEKLSEQELQFRRLSQEQVDNFTLDINTAYARLRGIEQAVQSHAVAEEEARKAHQLWLSVEALKYSMKTSSAETPTIPLGSAVEAIKANCSDNEFTQALTAAIPPESLTRGVYSEETLRARFYAVQKLARRVAMIDETRNSLYQYFLSYLQSLLLFPPQQLKPPPELCPEDINTFKLLSYASYCIEHGDLELAAKFVNQLKGESRRVAQDWLKEARMTLETKQIVEILTAYASAVGIGTTQVQPE
# notes: Prey clone; extent of the clone unknown; also called AD-IP; BC002412
# Target: T1, LexA BD-HRt
# Experiment: yeast two-hybrid library screen; number of positive clones with this identity
# From the text: Clontech Human Keratinocyte GAL4 cDNA library (complexity 2.5×10⁶) in pACT2 vector was used used to screen for HRt interacting proteins. A Leu⁻, Trp⁻ yeast strain with HIS3 and LACZ reporters for yeasts two hybrid interaction (strain L41) was first transformed with LexA BD-HRt palsmid) for Trp⁺ phenotype. The resulting L41/LexA BD-HR transformant was screened to ensure expression of LexA BD-HRt protein and also for lack of auto activation of the reporter genes HIS3 and LACZ. This strain was transformed with Keratinocyte AD-cDNA library and plated on Trp⁻Leu⁻His⁻ plate to select for clones with positive interaction. Colonies that appeared on selsctive plates were subsequently tested for LACZ expression on X-GAL plates. […] AD-plasmid was rescued from the 90 clones and retested for HRt bait dependance. […] The positive clones are expected to contain an AD-IP (interacting partner) that interacts with BD-HRt.
row,Hits,Binder
1,7,B1
2,1,B2
3,1,B3
4,1,B4
5,1,B5
6,1,B6
7,3,B7
8,3,B8
